Data: the supplement of paper PMC9170038

Tested on: MS2 coat protein
Assay: apparent KD of MS2 coat protein; designed switch direction (-1 OFF switch, 1 ON switch): -1; higher = weaker reporter binding
How it was run: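 Transcription of designed RNA switches on Illumina chips was done by stalled E. coli RNA polymerase. SNAP-549-labelled MS2 coat protein was then titrated in doubling steps from 0.7 or 1.5 nM to 3 µM, with steps of 0.8–1.5 h at the lowest and 10–20 min at the highest concentration. The per-design median over clusters of curve-fitted normalised fluorescence is reported as apparent KD.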

[1] = Eterna round: R95, input ligand: FMN 200 uM
[2] = Eterna round: R95, input ligand: microRNA oligo, concentration not stated
[3] = Eterna round: R95, input ligand: none
[4] = input ligand: microRNA oligo, concentration not stated

| Sequence | apparent KD of MS2 coat protein (input ligand: FMN 200 uM) [nM] | apparent KD of MS2 coat protein (input ligand: none) [nM] | also measured |
| --- | --- | --- | --- |
| GAGGGACAUGAGGAUCACCCAUGUGAGGAUAUGUGAGAAGGAUUGGAGAGUGAGUGGGACAGAAGGCGCAAGGG [JR_Exclu1_Sub085] (puzzle: Exclusion 1) |  |  | apparent KD of MS2 coat protein [1]: 95.4 nM; apparent KD of MS2 coat protein [2]: 59.9 nM; apparent KD of MS2 coat protein [3]: 78 nM |
| CUGGUCCGAGGAUAUAUGAUGUGAAACAUGAGGAUCACCCAUGUAAUAUUAUGGAGGUAAAUAGAAGGCGGACUAG [Mat - Exclusion 5 - JL mod - D35] (puzzle: Exclusion 5) |  |  | apparent KD of MS2 coat protein [1]: 45.3 nM; apparent KD of MS2 coat protein [2]: 55.2 nM; apparent KD of MS2 coat protein [3]: 60 nM |
| UUUUGGCAUGUAGGAUAUGGGUCCGAUUAGGAUUUAGAAGGACAUGAGGAUCACCCAUGUGCAUUUAAUUGGUCUUUACUUUUU [EXclNG1-LROPPY13] (Eterna round: R96, puzzle: Exclusion NG 1) | 115 | 72.9 | apparent KD of MS2 coat protein [4]: 61.2 nM |
| AAUAACAGAGGAUAUACUAUUUUAUGUGUUUGUUGUUUUAAACAUGAGGAUCACCCAUGUAGAAGGCUGAGUAA [JMF 33] (puzzle: Exclusion 2) |  |  | apparent KD of MS2 coat protein [2]: 21.8 nM |
| GGAUCACAUGUCAGGAUAUGCUGGUCCUUGGAUCAGCAGAAGGGACAUGAGGAUCACCCAUGUCAUGAAGAUCC [Eli bmx4 4.80] (Eterna round: R97, puzzle: Brourd's mod of Exclusion 4) | 1020 | 139 |  |
| GGGCCUUUGGUCAGGAUAUCUUAUUCCAGACUAUAGGAGAAGGGACUUGAGGAUCACCCAAGUAAAAUGAAAAC [Dizadi] (Eterna round: R97, puzzle: Brourd's mod of Exclusion 4) | 23.3 | 24 |  |
| UUUAAUUGUGACAUGGGUGACAUGAGGAUCACCCAUGUCACAAGCUUUUUGUUCGUCUUAUAAUUAACCCAUGUCAC [Stov1/13-B1] (Eterna round: R97, puzzle: Sensor, turn-off variant 1) | 37.8 | 123 |  |
| CCUGCACAUGAGGAUCACCCAUGUCAGGAUAUCUCGCCGUCGGCUUGCCGACGGUAUUAGAGAAGGGACACGGG [JL Tixe mod 1] (puzzle: Exclusion 1) |  |  | apparent KD of MS2 coat protein [2]: 22 nM |
| AUGCCGGUCCUCUCAGGUGUACAUGAGGAUCACCCAUGUCACGAGGAUAUCUAAGCGUGGUGGCCAGAGAAGGUGUGACAUGCU [Atibequ] (Eterna round: R96, puzzle: Exclusion NG 3) | 38.7 | 22.8 | apparent KD of MS2 coat protein [4]: 17.2 nM |
| UUUUUUGUUGUGAGGAUAUCGUAUUUUUUUUGUUACGAGAAGGCACAUGAGGAUCACCCAUGUUUCUUGAUGUU [JR_BMOE4_Sub066] (puzzle: Brourd's mod of Exclusion 4) |  |  | apparent KD of MS2 coat protein [2]: 16.8 nM |
| AAAUUGGUAGAGGAUAUCGUACAGGAAACGGUGCGAGAAGGUUGCACAUGAGGAUCACCCAUGUUAAGUUGCGA [EX6 #45] (Eterna round: R97, puzzle: Exclusion 6) | 24.1 | 26.8 |  |
| CUAGCUAUUGUAGGAUAUCGAUGUGUUUCACAUCGAGAAGGACAUGAGGAUCACCCAUGUGAAGGAUCGUGAGAUCCAAGCUAG [JL ENG1 3.77] (Eterna round: R96, puzzle: Exclusion NG 1) | 128 | 24.1 | apparent KD of MS2 coat protein [4]: 25.1 nM |
| AUGUUAUUCUGAGGAUAUUGUUUAUUCUUCUCACAUGAGGAUCACCCAUGUUUCCGUGUUUACCGCAAGAAGGCAGUUUUGUUU [JR_ExcNG2_Sub027] (Eterna round: R96, puzzle: Exclusion NG 2) |  |  | apparent KD of MS2 coat protein [4]: 22.1 nM |
| UAAUUAAUAAGAUCAAUUAAUUAACAUGAGGAUCACCCAUGUGAGGAUAUCAGCUCGUUUAGAGCUGAGAAGGCACAAUAAUUA [ExNG3/17-C2] (Eterna round: R96, puzzle: Exclusion NG 3) | 72 | 46.8 | apparent KD of MS2 coat protein [4]: 41.6 nM |
| UUAAUGUCAGGAUAUGCUUAAUAUAUUAUAUUAUAAUAUAUACAUGAGGAUCACCCAUGUAGAAGGGACAUUAU [LRO-Excl2-03-Fireball XL5] (Eterna round: R97, puzzle: Exclusion 2) | 26.8 | 38.2 |  |
| CGUAGCAAAGUGAGGAUAUCUAGAGCCUCGGCUCUAGAGAAGGCACAUGAGGAUCACCCAUGUGGUCAGCUACG [BmEx4/8-A2] (Eterna round: R97, puzzle: Brourd's mod of Exclusion 4) | 1050 | 101 |  |
| UGAACCCAUGUUAGGAUAUCAGGCCGAGGAAGUUCUGAGAAGGGACAUGAGGAUCACCCAUGUAUAAAAGAAAC [Veontiinge] (Eterna round: R96, puzzle: Brourd's mod of Exclusion 4) | 44.1 | 51.7 | apparent KD of MS2 coat protein [4]: 44.6 nM |
| UGCCAGCGAGGAUAUGCUAGAGGUGUUCCGUGCUCUAAGGGACAUGAGGAUCACCCAUGUAGAAGGCGCACGUC [Eternabot (L1) Solution 20] (Eterna round: R97, puzzle: Exclusion 2) | 187 | 194 |  |
| CCUCGACAUGAGGAUCACCCAUGUCAGGAUAUUGUGUUUUUGGUUUUUUACCUUUAGGCAAGAAGGGAUGUGUG [LRO-Excl1-18] (puzzle: Exclusion 1) |  |  | apparent KD of MS2 coat protein [2]: 14.4 nM |
| AAGUAUAGAGGAUAUAGUGAGUACUACAUGAGGAUCACCCAUGUUCUUCAAAGCGUAUUUCUAGAAGGCUGAUGAA [EX-5 Malc#15] (puzzle: Exclusion 5) |  |  | apparent KD of MS2 coat protein [1]: 58.4 nM; apparent KD of MS2 coat protein [2]: 38.8 nM; apparent KD of MS2 coat protein [3]: 51.5 nM |
| GGUUUGCGGCAGGAUAUCCAUCCGCGGUGUGGUGGAGAAGGGCUGACAUGAGGAUCACCCAUGUGCGUCCUGGU [salish99_ex6_r4_021] (Eterna round: R97, puzzle: Exclusion 6) | 36.3 | 21.8 |  |
| UUGAAGUCAUCAGGAUAUAGUAUUAAAGACAUUUAUUUUUUCAUACAUGAGGAUCACCCAUGUCGCUAGAAGGGAUUAUAGAUU [JR_ExcNG2_Sub079] (Eterna round: R96, puzzle: Exclusion NG 2) |  |  | apparent KD of MS2 coat protein [4]: 38.4 nM |
| UGGUGUGAAGGAUAUACAUGAGGAUCACCCAUGUAUGAGGUGUGUGUUGAGGUGGAGGGUAGAAGGUCAGGUGG [JR_Exclusion3_Sub013] (puzzle: Exclusion 3) |  |  | apparent KD of MS2 coat protein [2]: 32.2 nM |
| AAAUCCCGAGGAUAUACAUGAGGAUCACCCAUGUAAUCAAACAGGGCAAAUUGAUCCGGUAGAAGGCGGACAAU [EX3 A.26] (Eterna round: R97, puzzle: Exclusion 3) | 26.6 | 13.5 |  |
| GGUUGGCGAGGAUAUACAUGAGGAUCACCCAUGUGGUCCUGUGGCUGGAAAAACCUUUGUAGAAGGCGCGGGUC [salish99_ex3_r4_028] (Eterna round: R97, puzzle: Exclusion 3) | 258 | 184 |  |
| UAGUGAGCGUGAGGAAUAUACAUGAGGAUCACCCAUGUUUGCUAAUAUAUUGCUCGUCUUAUAACAACAAUUAACUG [Mod-hoo-honey#abc] (Eterna round: R97, puzzle: Sensor, turn-off variant 1) | 27.5 | 20.9 |  |
| CAGUACUGAGGAUAUACAUGAGGAUCACCCAUGUGAAAUGCAUAGGAAACUAUGCUAUGUAGAAGGCAGUACUG [Eli x3 4.03] (Eterna round: R97, puzzle: Exclusion 3) | 108 | 18.5 |  |
